Experimental findings from patent publication US8771694 (IMMUNOMEDICS, dated 2014) are described below.

Positions count from the first letter of the chain named.

The target in this experiment is T1, CD22 (LL2 antigen on the surface of Raji cells) (UniProt P20273 20-847, limits assumed).
T1 construct: whole, on cells; All assays used whole Raji cells; also called Raji cell surface antigen; B-lymphoma cells
T1 sequence (looked up): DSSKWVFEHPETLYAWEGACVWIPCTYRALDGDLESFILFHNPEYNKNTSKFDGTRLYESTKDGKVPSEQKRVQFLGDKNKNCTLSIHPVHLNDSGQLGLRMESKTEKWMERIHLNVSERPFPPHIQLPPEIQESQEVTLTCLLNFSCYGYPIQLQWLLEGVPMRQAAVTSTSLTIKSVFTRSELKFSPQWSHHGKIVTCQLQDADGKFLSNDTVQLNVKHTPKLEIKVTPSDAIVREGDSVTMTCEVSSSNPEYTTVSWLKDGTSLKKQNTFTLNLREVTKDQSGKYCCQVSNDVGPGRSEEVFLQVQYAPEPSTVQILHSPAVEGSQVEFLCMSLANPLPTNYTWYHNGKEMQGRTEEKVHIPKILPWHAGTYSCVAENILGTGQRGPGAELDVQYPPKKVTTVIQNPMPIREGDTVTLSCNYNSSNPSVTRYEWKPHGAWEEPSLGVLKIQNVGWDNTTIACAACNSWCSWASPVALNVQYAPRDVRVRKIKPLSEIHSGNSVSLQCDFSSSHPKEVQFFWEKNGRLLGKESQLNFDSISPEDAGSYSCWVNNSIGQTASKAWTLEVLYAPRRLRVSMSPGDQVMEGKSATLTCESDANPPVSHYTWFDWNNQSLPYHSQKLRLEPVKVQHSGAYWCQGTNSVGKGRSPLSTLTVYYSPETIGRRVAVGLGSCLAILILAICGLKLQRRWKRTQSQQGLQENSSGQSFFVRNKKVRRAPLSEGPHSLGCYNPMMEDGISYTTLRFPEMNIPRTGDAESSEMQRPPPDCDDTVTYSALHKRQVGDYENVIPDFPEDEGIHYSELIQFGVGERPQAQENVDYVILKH
Kind of experiment: competition flow cytometry on Raji cells, competitor mLL2 F(ab')2. As for the experimental part: The Raji cell surface antigen binding affinities of mix-and-match and fully humanized antibodies can be compared to that of cLL2 using various concentrations of mLL2 F(ab')_2 fragments devoid of the Fc portion as competitors, as evaluated by flow cytometry assay. Residual surface-bound LL2 antibodies carrying the human Fc portions (cLL2 and mix-and-match LL2) can be detected by a FITC-labeled anti-human Fc specific antibody in a flow cytometry assay.
Briefly, 1 µg of cLL2, mix-and-match LL2, hLL2-1 or hLL2-2 antibodies were incubated with […] Raji cells in the presence of varying concentrations of mLL2 F(ab')_2 fragments (as competitor) in a final volume of 100 µl of PBS buffer supplemented with 1% FCS and 0.01% sodium azide. The mixture was incubated for 30 minutes at 4° C., and washed three times with PBS to remove unbound antibodies. By taking advantage of the presence of human Fc portions in the antibodies, the binding levels of the antibodies were assessed by adding a 20×diluted FITC-labeled goat anti-human IgG1, Fc fragment-specific antibodies (Jackson ImmunoResearch, West Grove, Pa.). The cells were washed three times with PBS, and fluorescence intensities measured by a FACSCAN fluorescence activated cell sorter (Becton-Dickinson, Bedford, Mass.).

B1: humanized LL2 version 1 (antibody, human IgG1, V domains shown)
VH: QVQLQQSGAEVKKPGSSVKVSCKASGYTFTSYWLHWVRQAPGQGLEWIGYINPRNDYTEYNQNFKDKATITADESTNTAYMELSSLRSEDTAFYFCARRDITTFYWGQGTTVTVSS
VL: DIQLTQSPSSLSASVGDRVTMSCKSSQSVLYSANHKNYLAWYQQKPGKAPKLLIYWASTRESGVPSRFSGSGSGTDFTFTISSLQPEDIATYYCHQYLSSWTFGGGTKVQIKR
notes: VH has Q at Kabat position 5; also called hLL2-1; hLL2 with seven murine FR residues in the VH domain
Turning to B1, the binding result was “binds”.

B2: humanized LL2 version 2 (antibody, human IgG1, V domains shown)
VH: B1 VH with Q5V
VL: B1 VL
notes: VH has V at Kabat position 5; also called hLL2-2; hLL2
For the molecule B2, the binding result is listed as “binds”.
